Laboratory results: the DeepSol protein solubility set

Assay: soluble on expression in E. coli; label from the status in PepcDB or PDB records

| Sequence | soluble on expression in E. coli |
| --- | --- |
| MSLRLYFVRHGKTQWNLEGRLQGSKGDSPLLKESIEQVSELGHYLSDTHFDLVLSSDLPRAKKTTELIMESQKTKAKITYTKDLREWQLGKLEGQKLSIIQAIYPKEMDAFRHNLANFRANNFQAESVYHTTKRVADLVRTLKDSSMKNVLLVGHGANLTASIRSLLGFEPGLLRKAGGLDNASVTILETDDCEHFTLKSWNDTSYRTQVNKISEGHHHHHH | soluble |
| GPGSMAETRKEEWSEPEVPGGRSEVVAGIKRRREKLELYQSASHKMKALMMNSAGIRSGLGANNELPVNPIWMKFPTRCVKPIHSVEEMREKLHYFSHSDDVMVVRYHQENCTACNALDKTFEFLCHQSADRYPNLKFYEVSKDATPQLTRNLVRYPQVKGFSGGHWTDLEFKPPAEFREELYSGVEREVTRRKREGQPVTALEAEEMYYSSAGPAMAQVLEESVVKFYCKAQARLHNYWKQVSVRRAWFFRKFVEPKVDDQVRDEWRLKSVFGEKLSYGPEPQMEEF | not soluble |
| MSLRGLRGRSFTIGVLLIDIRNPFLPEVIAGVNEVLGPSHYQAMIGVSDARVQLETSLIESMIDYKMDGLILVAPRLPSEILATFAVQIPIVAVGYHDASATAFDTVNAE | soluble |
| LLLFFPLGLQQPLLLLLSPPFQHEIQRRKEEIKEEKKRKEMAKQERLEIASLSNQDHTSKKDPGGHRTAAILHGGSPDFVGNGKHRANSSGRSRRERQYSVCNSEDSPGSCEILYFNMGSPDQLMVHKGKCIGSDEQLGKLVYNALETATGGFVLLYEWVLQWQKKMGPFLTSQEKEKIDKCKKQIQGTETEFNSLVKLSHPNVVRYLAMNLKEQDDSIVVDILVEHISGVSLAAHLSHSGPIPVHQLRRYTAQLLSGLDYLHSNSVVHKVLSASNVLVDAEGTVKITDYSISKRLADICKEDVFEQTRVRFSDNALPYKTGKKGDVWRLGLLLLSLSQGQECGEYPVTIPSDLPADFQDFLKKCVCLDDKERWSPQQLLKHSFINPQPKMPLVEQSPEDSGGQDYVETVIPSNRLPSAAFFSETQRQFSRYFIEFEELQLLGKGAFGAVIKVQNKLDGCCYAVKRIPINPASRQFRRIKGEVTLLSRLHHENIVRYYNAWIERHERPAGPGTPPPDSGPLAKDDRAARGQPASDTDGLDSVEAAAPPPILSSSVEWSTSGERSASARFPATGPGSSDDEDDDEDEHGGVFSQSFLPASDSESDIIFDNEDENSKSQNQDEDCNEKNGCHESEPSVTTEAVHYLYIQMEYCEKSTLRDTIDQGLYRDTVRLWRLFREILDGLAYIHEKGMIHRDLKPVNIFLDSDDHVKIGDFGLATDHLAFSADSKQDDQTGDLIKSDPSGHLTGMVGTALYVSPEVQGSTKSAYNQKVDLFSLGIIFFEMSYHPMVTASERIFVLNQLRDPTSPKFPEDFDDGEHAKQKSVISWLLNHDPAKRPTATELLKSELLPPPQMEESELHEVLHHTLTNVDGKAYRTMMAQIFSQRISPAIDYTYDSDILKGNFSIRTAKMQQHVCETIIRIFKRHGAVQLCTPLLLPRNRQIYEHNEAALFMDHSGMLVMLPFDLRIPFARYVARNNILNLKRYCIERVFRPRKLDRFHPKELLECAFDIVTSTTNSFLPTAEIIYTIYEIIQEFPALQERNYSIYLNHTMLLKAILLHCGIPEDKLSQVYIILYDAVTEKLTRREVEAKFCNLSLSSNSLCRLYKFIEQKGDLQDLMPTINSLIKQKTGIAQLVKYGLKDLEEVVGLLKKLGIKLQVLINLGLVYKVQQHNGIIFQFVAFIKRRQRAVPEILAAGGRYDLLIPQFRGPQALGPVPTAIGVSIAIDKISAAVLNMEESVTISSCDLLVVSVGQMSMSRAINLTQKLWTAGITAEIMYDWSQSQEELQEYCRHHEITYVALVSDKEGSHVKVKSFEKERQTEKRVLETELVDHVLQKLRTKVTDERNGREASDNLAVQNLKGSFSNASGLFEIHGATVVPIVSVLAPEKLSASTRRRYETQVQTRLQTSLANLHQKSSEIEILAVDLPKETILQFLSLEWDADEQAFNTTVKQLLSRLPKQRYLKLVCDEIYNIKVEKKVSVLFLYSYRDDYYRILF | soluble |
| GMAPDQQVPATALGKSSRISLDGRRSERSVILADGSMHSLTLLHPGVYTLSSEVAETIRVLSGMAYYHAEGANDVQELHAGDSMVIPANQSYRLEVMEPLDYLLSS | soluble |
| SIYQVAIKSLPQDWLWCETWCDDESKQRAKTIDLCNNPKTKEPKLEAAARIVPEWVTYDTEIRTLLDHLENKKKSANSVHDEL | soluble |
| MKISIRHRYIAKIPALEVTTEEQKNEALPLIVYYHGWQSAKELSLTQARKLAHEGFRVILPDAMNHGERKTEPISTIPSITFWSSIQYNLIEFPVIIHHFHKLGLIKENWIGVGGVSMGGITTSALMTQHPEIQAAACLMGTPYPARYIQRVIQRAKEFAIFVPKDLPLLLSWVHQYDLSQTPERLQERPMLFWHGTEDEKIPYEDMADFEQLVSGKTYARNTQFITEIGERHLVKGETMDLVVDFFKEASKTLEK | not soluble |
| MGSDKIHHHHHHMKLGVNLCFAVKRWLEPDRLAGLVRDDLGLEYVQYTYDLTDPWWPDIERDRRAIAYAKAFRKAGLTIESTFGGLASYTYNHFLAPTLELQSLGYQHLKRAIDMTAAMEVPATGMPFGSYSAADALNPARREEIYAIARDMWIELAAYAKRQGLSMLYVEPVPLATEFPSSAADAARLMADLDGRTEIPVRLLVDWGHALFEPLFGPEADMDHWMDLCQPWIAAYHIQQTDGQLDRHWSFTQPGVVTPQRLQDFWDKYALTDQTFFAEILYPFEARDEDVLADMIASVKALKAASPAA | not soluble |
| MGSDKIHHHHHHMKSVQDRLSQTTNPSPKSYQQLYQEIVSDPEVAAFIKKEGLTQQEITLSISKFLEYISQRDLFVKQDEAYIAKGYQPVLVMNEGYADVSYLETEELVEYRRLEAIKNRIQLINMPASLKNVTVADIDKSDENRVEVMLAIADFVKRFEEKPKGLYIYGNFGIGKSYLMAYLANLLSKTHLQSTTMLHYPTFVVDIKNAIKDGSVKERIDEIKMAQVLVLDDIGAEQHSPWVRDDVLQVILQYRMQENLPTFFTSNFSFDDLERHFASGKSGDETWQAKRVMERIRYLARDLHLKGNNRR | not soluble |
| MTYTSLKSPENQDYIYDLTIAHLYGNLMNTYGDNGNILMLKYVAEKLGARVTVDIVSINDTFEQDDYDIVFFGGGQDYEQSIVAKDLPSKKAALADYIANNKVVLAICGGFQLLGQYYVQANGVKIDGLGIMGHYTLNQHQNRFIGDIKIHNDEFNETYYGFENHQGRTFLSGDEKPLGRVVYGNGNNKEDQTEGVHYKNVYGSYFHGPILSRNVNLAYRLVTTALKKKYGSAISLPSYDDILKQEITEEYADLKSKASFNKV | not soluble |
| MKINLDRTSSGFCIGVQGTIHVAEEKLAQSGELYCLGDVVHNEVEVKRLEALGMETIDIPAFEELRNAEVLIRAHGEPPSTYETARKNNLAITDTTCPVVAKLQRTAKMLHQLGYQVVIYGKKVHPEVIGINGQCDDEGVVIKHPDLSDPEEIAPLDLSRKTALISQTTMDVPGFYELKRNLEKLFAEHGHRNPGTQSGEWMAVRDIDITAEKTGALAMPKLVFKDTICRQVSSRNGKLRDFALANDCIVFAAGRKSSNGQVLYSICKDANPHSYFIEDVDEIRPEWFVGENGKPVESVGICGATSTPMWLLEKVANYIDKTFGDGSSNPNALEHHHHHH | not soluble |
| GFRVFIFIILHFVLTNCIREDMSGCPRDDGGLALKFSYDTNADSRLSTAQGVDRLAVFIFDEKGLFISQVNDSMTSINDDYVMELPYKQGSYQFVAWGGYDKSTYQTSECVPRKTYIDDFFLSVKRQEDNQVTNQPKLLYHGMHDIVELNSKEKTIVLINLKQMTNHIRVIAHNLNQDRSDNIYIEDNNGKYGYDSQFSDDDRITYIPIYEASSEQSNPLIADFNVMRLEKDREPWLRIADKTGTIRYDENLIGKLIGGNPNIDFEHNHDFTIEISFDNYIPVIIKINGWEIVNEEI | not soluble |
| MGSDKIHHHHHHMAPYPYKVQTTVPELQYENFDGAKFGYMFWPVQNGTNEVRGRVLLIHGFGEYTKIQFRLMDHLSLNGYESFTFDQRGAGVTSPGRSKGVTDEYHVFNDLEHFVEKNLSECKAKGIPLFMWGHSMGGGICLNYACQGKHKNEISGYIGSGPLIILHPHTMYNKPTQIIAPLLAKFLPRVRIDTGLDLKGITSDKAYRAFLGSDPMSVPLYGSFRQIHDFMQRGAKLYKNENNYIQKNFAKDKPVIIMHGQDDTINDPKGSEKFIQDCPSADKELKLYPGARHSIFSLETDKVFNTVFNDMKQWLDKHTTTEAKP | not soluble |
| MKGRVVIADDEPITRMDIVEMLLEEGYDIVGEASDGFDAIELCKKHKPDLVLMDVKMPLLNGLKAAEVINQDELAACVVLVTAYSGREFVEEAKKAGAMGYVVKPINEKNLLPTLEVAVSKSKEFNEMKSQVKKAQVQLEDRKQIERAKGILMKKEMLSEEEAYNQIRKLSMSKRCSMGEIAKIITMNQ | not soluble |
| MLACSFKAVNGGFRHLLIRMIIDPPHHLFDTALARQIAIHILHYQFEVTRPRLVAMQEHERTAVARSLRTINRRLEEPVFAKAYRRWAGRDGTVSRDCFKFDCCA | not soluble |
| MKTIHIYTNGRFEEKQSGIVREFPLVLHVNGREIATLISSPHDLRFLVAGFLRNQGFVERAEDFHMLAVCDDFGIANARIRGELPERLKPVLTSGCGTGVTFTLETPKIPPPLALPAITTDAVFRLMEELARRADNYRSHGGIHSAAVGDGEGNLLLFAEDIGRHNTLDRIAGEALFKGIDLAGTILVTSGRVSTEMAAKCARLGIALIASRTSATDMAVKMCDEAGIPLIGYVRGGKFTVYAHHERLAMAPPVGAIHELPLPASAQGRRIPGITGVILAGGQSRRMGSNKALLPYKGGRFIEAIHRQLAEIFDEVLLVTNNPEQYDFLPCRKVADIHPGMGALAGIHAGLHHAANPAAFMVACDMPYLNSDLIRHLATLADPGGVLIPESPAGLEPLHAVYGKGCLAAIETTLLSGERRIVSFFGRTNVNRVNAEQVALFDPDYATFSNINTPVDYYRLRDGERDELDAALGADRIAGLEHHHHHH | not soluble |
| NDLVSFTLRGNASWNRDKIIENDEAPKPYPWMEKRGTNVFSQWGLIADGLFTSEEEIEKHATQFGQVYIGDIKYRDLNNDKKIDSNDICRIGQGTIPKYNYGFGFDVQIGYFSVSALFQGAADVTTCLSGNSIIPFSSQAGIDNLFDNIEDRWSPDDPTNEDVFYPRLHYGNSNNSNNYRASTWWLRNMDYLRLKQFNIAYNLPENTLKSVGVKGARIYLMGTNLLTFSKFKLWDPEVYSSNGAAYPNVMSCSLGVNFSF | not soluble |
| MERGEIWLVSLDPTAGHEQQGTRPVLIVTPAAFNRVTRLPVVVPVTSGGNFARTAGFAVSLDGVGIRTTGVVRCDQPRTIDMKARGGKRLERVPETIMNEVLGRLSTILT | soluble |
| MGSDKIHHHHHHMKESLRREYAPVKDLKPDDHIKMVQDIFSTITGKYDFLNHLLSFRRDVAWRRFAARKMHFSVTRRYLDVATGTADLALEVARRYPEVQVIGVDFVLEMLEKAVEKSARRDKIRDRVHFVQADALALPFADASFDVVGIAFGIRNIPGRLGALREFSRVLVDGGQVVVLEMQSPEQKMLRPLCTFYLRHVLPRLARRFTRNPAAYLYLADSILHFPSSDRFSGMMRDAGFADVRNYPLTLGITRLYVGRKGQ | not soluble |
| MGSDKIHHHHHHMMTAHAIGTREEWLAARLDLLEAEKNLTRRSDELAKWRRELPWVRIDKAYRFETDEGEASLRDLFKGRSQLLVYHFMFGPDYTAGCPSCSAIADGFNGIVAHLENHDVAFSAVSRAPLAKLTAYKRRLGWSFPWASSDDGAFNRDFCVWFTEQQQREGGIEYNFRREPPIPEQPASEPLAGRTVREWDASGSEGPVAQIAAMTGTDVATYTRDRPGVSAFALEDGIVYHTYSSYARGLDGLWGMYQWLDRTPKGRNENGIWWRRHDEYAQG | not soluble |
| VRWIVDGMNVIGSRPDGWWRDRHRAMVMLVERLEGWAITKARGDDVTVVFERPPSTAIPSSVVEVAHAPKAAANSADDEIVRLVRSGAQPQEIRVVTSDKALTDRVRDLGAAVYPAERFRDLIDPRGSNAARRTQ | soluble |
